Measurements published in patent US20250042994A1 (HAINAN SIMCERE ZAIMING PHARMACEUTICAL, published 2025).

T1: human CD19 exon1-3-His tag protein (human, UniProt P15391 20-186, limits assumed)
T1 construct: membrane-distal part of the extracellular region, made in HEK293E cells; not shown: His tag
T1 sequence (looked up): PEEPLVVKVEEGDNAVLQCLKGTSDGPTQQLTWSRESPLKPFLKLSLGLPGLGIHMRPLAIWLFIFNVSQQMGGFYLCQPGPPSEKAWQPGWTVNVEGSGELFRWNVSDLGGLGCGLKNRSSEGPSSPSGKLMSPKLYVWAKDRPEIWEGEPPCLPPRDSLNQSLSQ

T2: Human CD19-his protein (human, UniProt P15391 20-291)
T2 construct: bought protein; also called recombinant human CD19-His; CD19 full-length protein; not shown: His tag
T2 sequence (looked up): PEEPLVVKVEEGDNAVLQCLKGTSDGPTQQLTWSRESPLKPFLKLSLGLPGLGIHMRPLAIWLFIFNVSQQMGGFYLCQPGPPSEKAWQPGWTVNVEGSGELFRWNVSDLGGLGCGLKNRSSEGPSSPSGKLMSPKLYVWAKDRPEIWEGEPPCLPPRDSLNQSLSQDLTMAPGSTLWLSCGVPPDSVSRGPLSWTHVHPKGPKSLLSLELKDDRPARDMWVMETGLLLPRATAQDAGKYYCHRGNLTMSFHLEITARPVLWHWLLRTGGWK

T3: cynomolgus monkey CD19 on peripheral blood B cells (cynomolgus monkey (Macaca fascicularis), UniProt A0A2K5W8L9 20-557)
T3 construct: whole, on cells; also called cynomolgus monkey B cells
T3 sequence: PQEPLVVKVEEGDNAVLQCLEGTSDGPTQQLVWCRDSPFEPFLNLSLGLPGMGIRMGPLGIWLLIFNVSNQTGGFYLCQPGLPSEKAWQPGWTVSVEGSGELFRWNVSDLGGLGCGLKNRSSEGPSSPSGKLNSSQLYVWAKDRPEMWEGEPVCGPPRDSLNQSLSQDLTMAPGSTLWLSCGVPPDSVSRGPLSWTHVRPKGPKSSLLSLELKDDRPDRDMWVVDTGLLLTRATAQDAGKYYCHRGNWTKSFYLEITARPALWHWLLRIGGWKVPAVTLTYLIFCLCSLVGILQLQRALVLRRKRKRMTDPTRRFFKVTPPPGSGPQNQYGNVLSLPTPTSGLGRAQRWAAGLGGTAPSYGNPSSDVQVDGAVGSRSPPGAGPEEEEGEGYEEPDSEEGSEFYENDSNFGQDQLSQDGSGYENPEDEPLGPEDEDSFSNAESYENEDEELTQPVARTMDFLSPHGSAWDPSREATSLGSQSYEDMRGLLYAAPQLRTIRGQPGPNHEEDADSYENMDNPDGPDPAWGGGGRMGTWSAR

T4: human CD19 on Raji cells (human, UniProt P15391 20-556)
T4 construct: whole, on cells
T4 sequence (looked up): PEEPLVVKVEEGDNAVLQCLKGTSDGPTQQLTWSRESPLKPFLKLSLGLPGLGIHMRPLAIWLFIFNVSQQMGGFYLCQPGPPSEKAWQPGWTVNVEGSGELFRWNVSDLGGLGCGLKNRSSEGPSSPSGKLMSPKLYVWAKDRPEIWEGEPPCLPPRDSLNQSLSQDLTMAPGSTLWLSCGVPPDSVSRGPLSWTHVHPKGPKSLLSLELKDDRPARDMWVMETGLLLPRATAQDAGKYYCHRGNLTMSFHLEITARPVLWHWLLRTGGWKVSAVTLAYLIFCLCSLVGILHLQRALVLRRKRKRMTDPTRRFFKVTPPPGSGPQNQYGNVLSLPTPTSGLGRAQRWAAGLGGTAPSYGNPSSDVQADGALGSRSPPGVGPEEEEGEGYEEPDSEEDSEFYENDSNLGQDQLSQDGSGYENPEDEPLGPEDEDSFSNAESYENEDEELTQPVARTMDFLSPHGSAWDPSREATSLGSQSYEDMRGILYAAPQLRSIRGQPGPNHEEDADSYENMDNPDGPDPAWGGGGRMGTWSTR

T5: human CD19 on CHO-K1-human CD19 cells (human, UniProt P15391 20-556)
T5 construct: whole, on cells; also called CHO-K1-human CD19-2C8
T5 sequence (looked up): T4 sequence (looked up)

B1: F3.118.14 (antibody, human IgG1, V domains shown)
VH: QVQLQQSGAELVRPGASVTLSCKASGYTFPDYEIHWVKQTPVHGLEWIGAIDPETGGIGYNQKFTGKAMLTADKSSSTAYMELRSLTSEDSAVYFCTRNYGSRWGQGSTLTVSS
VL: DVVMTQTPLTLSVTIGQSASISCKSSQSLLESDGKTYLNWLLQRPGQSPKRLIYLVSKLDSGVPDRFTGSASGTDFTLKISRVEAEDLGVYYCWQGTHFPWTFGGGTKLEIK
notes: human-murine chimeric antibody, human IgG1 constant
B2: F3.77.6 (antibody, human IgG1, V domains shown)
VH: EFQLQQSGPELVKPGASVKISCKASGYSFTDYNMNWVKQSNGKSLEWIGTINPNYITSYNQKFKGKATLTVDQSSSTAYMQLNSLTSEDSAVYYCAGDYKGYWGQGTTLTVSS
VL: not shown
notes: human-murine chimeric antibody, human IgG1
B3: F3.77.6 (antibody, human IgG1, V domains shown)
VH: B2 VH
VL: not shown
notes: as for B1
B4: F5.11.2 (antibody, human IgG1, V domains shown)
VH: EVQLVESGGDLVKPGGSLKLSCAASGFTFSSYGMSWVRQTPDKRLEWVATISHGGSYTHYPDSVKGRFTISRDNAKNTLYLQMNSLKSEDTAMYYCVRLPITTVEAPYFFDYWGQGTTLTVSS
VL: DIQMTQTTSSLSASLGDRVTISCRASQDIRNYLNWYQQKPDGTVKLLIYYTSILHSGVPSRFSGSGSGTDYSLTINNLEQEDVATYFCQQGNTLYTFGGGTEVELR
notes: as for B2
B5: F3.124.7 (antibody, human IgG1, V domains shown)
VH: EVQLQQSGPVLVKPGASVKMSCKASGYTFTDYYMNWVKQRHGKSLEWIGISNPYNGGTSYNQKFKDKATLTVDKSSSTAYMELNSLTSEDSAVYYCAREGGTAQPTSGMDYWGQGTSVTVSS
VL: NIMMTQSPSSLAVSAGEKVTMSCKSSQSVLYSSNQKNYLAWYQQKPGQSPKLLIYWASTRESGVPDRFTGSGSGTDFTLTISSVQPEDPAVYYCHQYRSSYTFGGGTKLEIK
notes: as for B1

Columns and labels:
monkey CD19-His protein = target: T6, monkey CD19-His protein (monkey); assay: SPR Biacore, method of example 7.1, monkey CD19-His
T6 construct: bought protein; also called monkey CD19 protein
Protocol: A sample buffer and a running buffer were HBS-EP+ (10 mM HEPES, 150 mM NaCl, 3 mM EDTA and 0.05% surfactant P20) (GE Healthcare; BR-1006-69). The flow-through cell was set to 25° C. The sample block was set to 16° C. Both were pretreated with the running buffer. In each cycle, an antibody to be detected was first captured with a Protein A chip, and then a single concentration of CD19 antigen protein was injected. The binding and dissociation processes of the antibody and the antigen protein were recorded, and finally Glycine pH 1.5 (GE Healthcare; BR-1003-54) was used to complete chip regeneration. The binding was measured by injecting different concentrations of recombinant human CD19-His proteins in a solution for 240 s with a flow rate of 30 μl/min. The concentration started from 200 nM (see the detailed results for the actual concentration in the test) and was diluted at 1:1, making a total of 5 concentrations. The dissociation phase was monitored for up to 600 s and was triggered by switching from sample solution to running buffer. The surface was regenerated by washing with a 10 mM glycine solution (pH 1.5) for 30 s at a flow rate of 30 μl/min. Bulk refractive index difference was corrected by subtracting the response obtained from the goat anti-human Fc surface. Blank injection was also subtracted (=double reference). For calculation of apparent KD and other kinetic parameters, Langmuir 1:1 model was used.
According to the method in example 7.1, the affinity of the chimeric antibodies to monkey CD19 (ACROBiosystems, catalog number: 90051-C08H) protein was determined.

[1] = target: T1, human CD19 exon1-3-His tag protein; assay: ELISA on coated human CD19 exon 1-3-His
Human CD19-his protein = target: T2, Human CD19-his protein; assay: SPR Biacore, Ab captured on Protein A, CD19-His analyte
Outline: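 Apparent KD came from a Langmuir 1:1 fit of double-referenced sensorgrams. Recombinant human CD19-His analyte (top 200 nM, 1:1 serial dilution, 5 concentrations) flowed over Protein A-captured antibody for 240 s at 30 μl/min, then buffer for up to 600 s. Running buffer HBS-EP+ at 25 °C; regeneration with 10 mM glycine pH 1.5.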

[2] = target: T3, cynomolgus monkey CD19 on peripheral …; assay: FACS, cynomolgus PBMC, CD20+ B cells
human CD19 on Raji cells = target: T4, human CD19 on Raji cells; assay: FACS on Raji cells
monkey CD19 protein [3] = target: T7, monkey CD19 protein (monkey); assay: ELISA, coated monkey CD19 protein
T7 construct: also called monkey CD19-His protein
Protocol: (§1) Human CD19-his protein (purchased from ACROBiosystems, catalog number: CD9-H52H2) was diluted with PBS to a final concentration of 4 μg/mL, and then added to a 96-well ELISA plate at 100 μl/well. The plate was sealed with a plastic film and incubated overnight at 4° C., the plate was washed 2 times with PBS the next day, and then a blocking solution [PBS+2% (w/w) BSA] was added for blocking at room temperature for 2 h. The blocking solution was poured off, and 100 nM gradiently diluted CD19 chimeric antibody or control antibody was added at 50 μl/well. After incubation at 37° C. for 2 h, the plate was washed 3 times with PBS. […] TMB substrate was added at 50 μl/well, and incubated at room temperature for 10 min, and then a stop solution (1.0 N HCl) was added at 50 μl/well. The OD450 nm values were read by an ELISA microplate reader (Multimode Plate Reader, EnSight, purchased from Perkin Elmer).
(§2) In order to detect the species cross-binding activity of the chimeric antibodies, an ELISA plate was coated with commercial murine CD19 (ACROBiosystems, catalog number: 50510-M08H) and monkey CD19 (ACROBiosystems, catalog number: 90051-C08H), respectively, and the ELISA detection was performed according to the method in example 5.1.

[4] = target: T5, human CD19 on CHO-K1-human CD19 cells; assay: FACS on CHO-K1-human CD19 cells
monkey CD19 protein [5] = target: T7, monkey CD19 protein; assay: ELISA on coated monkey CD19-His
Protocol: as §1, §2

[6] = target: T8, monkey CD19 on HEK293T-monkey CD19 cells (monkey); assay: FACS on HEK293T-monkey CD19 cells
T8 construct: whole, on cells
Outline: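 Antibody binding was read as MFI by flow cytometry and EC50 was taken from curve fitting. Before that, cells at 2×10⁶ cells/ml in PBS with 2% (w/w) BSA were exposed to samples for 2 h on ice and washed. Parental HEK293T cells were tested the same way.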

Binder	Kd (monkey CD19-His protein) [nM]	koff (monkey CD19-His protein) [s⁻¹]	kon (monkey CD19-His protein) [M⁻¹ s⁻¹]	EC50 (read off the curve) [1] [nM]	Kd (Human CD19-his protein) [nM]	koff (Human CD19-his protein) [s⁻¹]	kon (Human CD19-his protein) [M⁻¹ s⁻¹]	Proportion of chimeric antibody positive cells to B cells (%) at 1 nM [2] [%]	Proportion of chimeric antibody positive cells to B cells (%) at 10 nM [2] [%]	Proportion of chimeric antibody positive cells to B cells (%) at 100 nM [2] [%]	EC50 (human CD19 on Raji cells) [nM]	Maximum mean fluorescence intensity (human CD19 on Raji cells)	OD450 at 0.0001 nM (monkey CD19 protein [3]) [OD450]	OD450 at 0.001 nM (monkey CD19 protein [3]) [OD450]	OD450 at 0.01 nM (monkey CD19 protein [3]) [OD450]	OD450 at 0.10 nM (monkey CD19 protein [3]) [OD450]	OD450 at 1.00 nM (monkey CD19 protein [3]) [OD450]	OD450 at 10 nM (monkey CD19 protein [3]) [OD450]	OD450 at 100 nM (monkey CD19 protein [3]) [OD450]	EC50 [4] [nM]	also measured
B1	0.00583	9.72e-08	16700	~0.3	6.05	0.000326	53900														
B2								4	18	56	1.62	27400	0.07	0.11	0.38	1.48	2.27	2.51	2.49	3.13	Maximum mean fluorescence intensity [4]: 4990; EC50 (read off the curve) (monkey CD19 protein [5]): ~0.07 nM; EC50 [6]: 6.45 nM; Maximum mean fluorescence intensity [6]: 179000
B3	0.00759	1.4e-07	18400	~0.1	2	0.000169	84400														
B4								12	34	76	23.4	16600	0.06	0.06	0.06	0.12	0.71	1.25	1.16	14.7	Maximum mean fluorescence intensity [4]: 46600; EC50 (read off the curve) (monkey CD19 protein [5]): ~0.8 nM; EC50 [6]: 13 nM; Maximum mean fluorescence intensity [6]: 80600
B5	0.803	5.62e-05	70000	~0.03	1.99	0.000138	69300														
